Specific Inh. Activity [TIU/mg IαIp] data for two substances are collected here from patent publication USRE47972.

The assay deals with trypsin. The assay is described as follows: cell-based or functional assay.

The substance “Human IαIp (mixture of inter-alpha inhibitor IαI and pre-alpha inhibitor PαI) purified from cryoprecipitate, a side-fraction of fVIII production (from UniProt P02760 206-352; P19827 35-672; P19823 55-702; Q06033 35-651)” showed a Specific Inh. Activity [TIU/mg IαIp] of 1410 TIU/mg IαIp.

As to “Highly purified human IαIp (mixture of inter-alpha inhibitor IαI and pre-alpha inhibitor PαI) purified from cryo-poor plasma (from UniProt P02760 206-352; P19827 35-672; P19823 55-702; Q06033 35-651)”, the Specific Inh. Activity [TIU/mg IαIp] came to 1410 TIU/mg IαIp.
